According to the supplement of paper PMC10567573:

B1: FCHSD1 (parent)
chain: LEAAEVILEHAHRGEQTTSQVSWE
B2: PBXIP1 (parent)
chain: LQQLRARLQGLEADCVRGPDGVCL

Variants of: B1
Assay: protein stability index of a GFP-peptide fusion (GPS, HEK-293T) (PSI 1-6); higher = more stable
Conditions: c terminus: a fixed tail appended
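Note: lentivirally expressed fusions sorted by FACS into six bins by GFP to DsRed ratio, PSI derived from sequencing read proportions per bin multiplied by bin number.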

Point of comparison: LEAAEVILEHAHRGEQTTNQVSWE, protein stability index 4.7. Against it:
- LEQAEVILEHAHRGEQTTSQVSWE — higher, 4.79
- LEMAEVILEHAHRGEQTTSQVSWE — lower, 3.65
- LEDAEVILEHAHRGEQTTSQVSWE — higher, 5.14
- LELAEVILEHAHRGEQTTSQVSWE — lower, 3.71
- LETAEVILEHAHRGEQTTSQVSWE — lower, 4.49
- LEVAEVILEHAHRGEQTTSQVSWE — lower, 2.89
- LEAAEVILEHAHRGEQTTSQVSWV — lower, 3.07
- LEAAEVILEHAHRGEQTTSQVSWP — lower, 4.3
- LEAAEVILEHAHRGEQTTSQVSWY — lower, 3.99
- LEAAEVILEHAHRGEQTTSQVSWF — lower, 2.65
- LEAAEVILEHAHRGEQTTSQVSWH — lower, 4
- LEAAEVILEHAHRGEQTTSQVSWL — lower, 2.95
- LEAAEVILEHAHRGEQTTSQVSWR — lower, 3.47
- SEAAEVILEHAHRGEQTTSQVSWE — lower, 4
- IEAAEVILEHAHRGEQTTSQVSWE — lower, 4.12
- KEAAEVILEHAHRGEQTTSQVSWE — lower, 4.67
- FEAAEVILEHAHRGEQTTSQVSWE — lower, 3.33
- REAAEVILEHAHRGEQTTSQVSWE — lower, 4.52
- LEAAEVILEHAHRAEQTTSQVSWE — lower, 4.55
- LEAAEVILEHAHRQEQTTSQVSWE — lower, 4.63
- LEAAEVILEHAHRNEQTTSQVSWE — lower, 4.53
- LEAAEVILEHAHRYEQTTSQVSWE — lower, 3.64
- LEAAEVILEHAHRFEQTTSQVSWE — lower, 2.88
- LEAAEVILEHAHRIEQTTSQVSWE — lower, 3.85
- LEAAEVILEHAHREEQTTSQVSWE — lower, 4.53
- LEAAEVILEHAHRPEQTTSQVSWE — lower, 4.29
- LEAAEVIYEHAHRGEQTTSQVSWE — lower, 4.42
- LEAAEVIMEHAHRGEQTTSQVSWE — lower, 4.46
- LEAAEVIWEHAHRGEQTTSQVSWE — lower, 4.31
- LEAAEVIDEHAHRGEQTTSQVSWE — higher, 5.35
- LEAAEVIHEHAHRGEQTTSQVSWE — higher, 4.74
- LEAAEVICEHAHRGEQTTSQVSWE — higher, 4.93
- LEAAEVIIEHAHRGEQTTSQVSWE — lower, 4.46
- LEAAEVILEHAHRGEQTTSQVSTE — higher, 4.9
- LEAAEVILEHAHRGEQTTSQVSFE — lower, 4.64
- LEAAEVILEHAHRGEQTTSQVSPE — higher, 5.29
- LEAAEVILEHAHRGEQTTSQVSIE — lower, 4.2
- LEAMEVILEHAHRGEQTTSQVSWE — lower, 2.35
- LEADEVILEHAHRGEQTTSQVSWE — lower, 3.59
- LEAREVILEHAHRGEQTTSQVSWE — lower, 3.59
- LEATEVILEHAHRGEQTTSQVSWE — lower, 3.82
- LEALEVILEHAHRGEQTTSQVSWE — lower, 2.59
- LEAVEVILEHAHRGEQTTSQVSWE — lower, 3.15
- LEAAEVILEHAHRGECTTSQVSWE — lower, 2.73
- LEAAEVILEHAHRGEVTTSQVSWE — lower, 4.13
- LEAAEVILEHAHRGEMTTSQVSWE — lower, 3.57
- LEAAEVILEHAHRGERTTSQVSWE — lower, 4.14
- LEAAEVILEHAHRGEHTTSQVSWE — lower, 4.05
- LEAAEVILEHHHRGEQTTSQVSWE — lower, 4.05
- LEAAEVILEHVHRGEQTTSQVSWE — lower, 4.54
- LEAAEVILEHQHRGEQTTSQVSWE — lower, 4.11
- LEAAEVILEHNHRGEQTTSQVSWE — lower, 4.18
- LEAAEVILEHTHRGEQTTSQVSWE — lower, 3.04
- LEAAEVILEHDHRGEQTTSQVSWE — higher, 4.97
- LEAAEVILEHIHRGEQTTSQVSWE — lower, 3.33
- LEAAEVILEHGHRGEQTTSQVSWE — lower, 4.14
- LEAAEVILEHCHRGEQTTSQVSWE — lower, 4.14
- LEAAEVILEHAHRGEQTTSQKSWE — lower, 4.68
- LEAAEVILEHAHRGEQTTSQESWE — higher, 5.07
- LEAAEVILEHAHRGEQTTSQMSWE — lower, 4.32
- LEAAEVILEHAHRGEQTTSQISWE — lower, 3.5
- LEAAEVILEHAHRGEQTTSQPSWE — higher, 5.55
- LEAAEVILEHAHRGEQTTSQASWE — higher, 5.21
- LEAAEVILEHAHRGEQTTSQTSWE — lower, 4.64
- LEAAEVILEHAHRGEQTTSQCSWE — lower, 4.62
- LEAAEVILEHAHRGEQTTSQNSWE — higher, 4.92
- LEAAEVILEHAHRGEQTASQVSWE — lower, 3.72
- LEAAEVILEHAHRGEQTDSQVSWE — higher, 4.74
- LEAAEVILEHAHRGEQTISQVSWE — lower, 3.65
- LEAAEVILEHAHRGEQTNSQVSWE — lower, 3.69
- LEAAEVILEHAHRGEQTYSQVSWE — lower, 3.21
- LEAAEVILEHAHRGEQTSSQVSWE — lower, 4.41
- LEAAEVILEHAHRGEQTGSQVSWE — lower, 4.38
- LEAAEVILEHAHRGEQTWSQVSWE — lower, 2.7
- LEAAEVILEHAHRGEQTCSQVSWE — lower, 4.45
- LEAAEVILEHAHRGEQTKSQVSWE — lower, 4.54
- LEAAEVILEHAHRGEQTESQVSWE — lower, 4.2
- LEAAEVILEHAHHGEQTTSQVSWE — lower, 4.6
- LEAAEVILEHAHLGEQTTSQVSWE — lower, 4.13
- LEAAEVILEHAHVGEQTTSQVSWE — higher, 4.93
- LEAAEVILEHAHNGEQTTSQVSWE — lower, 4.63
- LEAAEVILEHAHYGEQTTSQVSWE — lower, 3.44
- LEAAEVILEHAHQGEQTTSQVSWE — lower, 4.41
- LEAAEVILEHAHGGEQTTSQVSWE — higher, 5.25
- LFAAEVILEHAHRGEQTTSQVSWE — lower, 2.21
- LMAAEVILEHAHRGEQTTSQVSWE — lower, 3.79
- LRAAEVILEHAHRGEQTTSQVSWE — lower, 3.84
- LTAAEVILEHAHRGEQTTSQVSWE — lower, 3.6
- LEAAEVILEHAHRGEQATSQVSWE — lower, 4.2
- LEAAEVILEHAHRGEQETSQVSWE — higher, 5.06
- LEAAEVILEHAHRGEQSTSQVSWE — higher, 4.77
- LEAAEVILEHAHRGEQMTSQVSWE — lower, 3.85
- LEAAEVILEHAHRGEQLTSQVSWE — lower, 2.78
- LEAAEDILEHAHRGEQTTSQVSWE — higher, 5.52
- LEAAEFILEHAHRGEQTTSQVSWE — lower, 3.56
- LEAAEHILEHAHRGEQTTSQVSWE — the same, 4.7
- LEAAEKILEHAHRGEQTTSQVSWE — lower, 4.16
- LEAAEYILEHAHRGEQTTSQVSWE — lower, 4.17
- LEAAEMILEHAHRGEQTTSQVSWE — lower, 3.85
- LEAAESILEHAHRGEQTTSQVSWE — lower, 4.24
- LEAAEVILEHAHRGWQTTSQVSWE — lower, 2.2
- LEAAEVILEHAHRGNQTTSQVSWE — the same, 4.7
- LEAAEVILEHAHRGAQTTSQVSWE — lower, 3.79
- LEAAEVILEHAHRGQQTTSQVSWE — lower, 3.5
- LEAAEVILEHAHRGIQTTSQVSWE — lower, 3.31
- LEAAEVILEHAHRGHQTTSQVSWE — lower, 3.87
- LEAAEVILEHAHRGVQTTSQVSWE — lower, 2.6
- LEAAEVILEHAHRGLQTTSQVSWE — lower, 2.81
- LEAAEVILEHAHRGEQTTSQVQWE — higher, 4.98
- LEAAEVILEHAHRGEQTTSQVEWE — lower, 4.68
- LEAAEVILEHAHRGEQTTSQVGWE — higher, 4.89
- LEAAEVILEHAHRGEQTTSQVNWE — lower, 4.47
- LEAAEVILEHAHRGEQTTSQVYWE — lower, 4.63
- LEAAEVILEHAHRGEQTTSQVTWE — lower, 3.8
- LEAAEVILEHAHRGEQTTSQVFWE — lower, 3.71
- LEAAEVILEHAHRGEQTTSQVDWE — higher, 4.77
- LEAAEVILEHAHRGEQTTSQVCWE — lower, 3.85
- LEAAEVILEHAHRGEQTTSQVKWE — higher, 4.93
- LEAAEVILEHAHRGEQTTSQVAWE — lower, 4.57
- LEAAEVILEHAARGEQTTSQVSWE — lower, 4.23
- LEAAEVILEHANRGEQTTSQVSWE — lower, 4.55
- LEAAEVILEHAMRGEQTTSQVSWE — lower, 3.79
- LEAAEVILEHAPRGEQTTSQVSWE — lower, 4.43
- LEAAEVILEHATRGEQTTSQVSWE — lower, 4.11
- LEAAEVILEHAFRGEQTTSQVSWE — lower, 2.87
- LEAAEVILEHAERGEQTTSQVSWE — higher, 4.92
- LEAAEVSLEHAHRGEQTTSQVSWE — higher, 4.92
- LEAAEVVLEHAHRGEQTTSQVSWE — higher, 4.75
- LEAAEVFLEHAHRGEQTTSQVSWE — lower, 4.27
- LEAAEVDLEHAHRGEQTTSQVSWE — higher, 5.62
- LEAAEVMLEHAHRGEQTTSQVSWE — higher, 4.84
- LEAAEVQLEHAHRGEQTTSQVSWE — lower, 4.55
- LEAAEVWLEHAHRGEQTTSQVSWE — lower, 4.24
- LEAAEVRLEHAHRGEQTTSQVSWE — higher, 5.16
- LEAAEVILEHAHRGEQTTEQVSWE — higher, 4.75
- LEAAEVILEHAHRGEQTTCQVSWE — lower, 3.3
- LEAAEVILEHAHRGEQTTIQVSWE — lower, 3.02
- LEAAEVILEHAHRGEQTTKQVSWE — lower, 4.45
- LEAAEVILEHAHRGEQTTQQVSWE — higher, 4.89
- LEAAEVILEHAHRGEQTTVQVSWE — lower, 2.37
- LEAAEVILEHAHRGEQTTDQVSWE — higher, 5.11
- LEAAEVILEMAHRGEQTTSQVSWE — lower, 3.15
- LEAAEVILESAHRGEQTTSQVSWE — lower, 4.41
- LEAAEVILETAHRGEQTTSQVSWE — lower, 4.65
- LEAAEVILEEAHRGEQTTSQVSWE — higher, 5.19
- LEAAEVILEKAHRGEQTTSQVSWE — lower, 4.48
- LEAAEVILEVAHRGEQTTSQVSWE — lower, 3.92
- LEAAEVILWHAHRGEQTTSQVSWE — lower, 2.05
- LEAAEVILDHAHRGEQTTSQVSWE — lower, 4.33
- LEAAEVILYHAHRGEQTTSQVSWE — lower, 2.33
- LEAAEVILQHAHRGEQTTSQVSWE — lower, 3.45
- LEAAEVILIHAHRGEQTTSQVSWE — lower, 1.86
- LEAAEVILLHAHRGEQTTSQVSWE — lower, 2.52
- LEAAEVILKHAHRGEQTTSQVSWE — lower, 4.19
- LEAAEVILEHAHRGEQTTSDVSWE — higher, 5.02
- LEAAEVILEHAHRGEQTTSNVSWE — higher, 4.86
- LEAAEVILEHAHRGEQTTSSVSWE — lower, 4.51
- LEAAEVILEHAHRGEQTTSTVSWE — lower, 3.86
- LEAAEVILEHAHRGEQTTSMVSWE — lower, 4.34
- LEAAEVILEHAHRGEQTTSKVSWE — higher, 5.02
- LEAATVILEHAHRGEQTTSQVSWE — lower, 4.38
- LEAAYVILEHAHRGEQTTSQVSWE — lower, 2.01
- LEAALVILEHAHRGEQTTSQVSWE — lower, 1.11
- LEAAHVILEHAHRGEQTTSQVSWE — lower, 3.6
- LEAAIVILEHAHRGEQTTSQVSWE — lower, 2.18
- LEAAWVILEHAHRGEQTTSQVSWE — lower, 1.53
- LEAARVILEHAHRGEQTTSQVSWE — lower, 4.22
- LEAAQVILEHAHRGEQTTSQVSWE — lower, 4.2
- LEAAMVILEHAHRGEQTTSQVSWE — lower, 2.4

Variants of: B2
Assay: as above
Conditions: c terminus: a fixed tail appended

Point of comparison: LQYLRARLQGLEADCVRGPDGVCL, protein stability index 1.4. Against it:
- LQQLRARLQGLEADWVRGPDGVCL — higher, 2
- LQKLRARLQGLEADCVRGPDGVCL — higher, 1.97
- LQQLRARKQGLEADCVRGPDGVCL — higher, 3.57
- LQQLRARLQGLEAQCVRGPDGVCL — higher, 2.21
- LQQLRARLQGLEADCVRGPMGVCL — higher, 1.53
- LQQLRARLQGLEADCVRGPGGVCL — higher, 2.45
- LQQNRARLQGLEADCVRGPDGVCL — higher, 3.83
- LQQLRARLQGLEADCVRGPDGVCR — higher, 2.65
- LQQLRARLQGLEADCVRGPDGTCL — higher, 2.57
- LQQLRARLQGLEADCHRGPDGVCL — higher, 1.74
- LQQLRARLQGLEADCCRGPDGVCL — higher, 1.78
- LQQLRARLQGLEADCVRVPDGVCL — higher, 3.65
- LQQLRARLQGLEADCVRDPDGVCL — higher, 3.74
- LQQLRARLQGLEKDCVRGPDGVCL — higher, 2.52
- LCQLRARLQGLEADCVRGPDGVCL — higher, 3.55
- LGQLRARLQGLEADCVRGPDGVCL — higher, 2.38
- LQQLRAQLQGLEADCVRGPDGVCL — higher, 3.33
